Measurements from the DeepSol protein solubility set.

test: soluble on expression in E. coli; label from the status in PepcDB or PDB records

| Sequence | soluble on expression in E. coli |
| --- | --- |
| MANDGGAKLSKNLLRMKFMQRGLDAEVKKQLDEEEKRIISDEHWFLDLPELKAKENHIIEERSFVPCEDLVYGRMSFKGFNPDVEKLMLLMNAPREEEDEEEEDESMNKMETDITDEEMAKRYQSLVESMRKKFAKKRDRSAVSNKEDVNCNVTDDIRPKRAFMKPQD | soluble |
| MANIVITTHWTDGDVLPFIKIGSELRKRGHRVTLITHCYYKNMAKSQGLDFEAWDSPEQHRQMLEDMKEELDPLRNPCALERYKKKYESIEVRLREFKKVIAHCNTTDTVLVAKNRSSVAAYLAAEKLNIPLVCVFMAPSEMLSMVSYEMMLGKLLANELNLLRKELNLAPVKSWLAWQSSPKRQIALWPDWFAEPIEEWPAEVINVGFPLSYNERFDNLPPDLMEDLLGDEPPVVITGGTSKTIRPEFYPLCVETCRLSGRKGILVTRYEELLPKELPDKVKWFRELPLNKIFPYTSAVIHHGGMGTLSGAIAAGVPQLVLPYYLDRPYNALCLKKLGIAEYLPPIKWKPEIMVDALQKITASSFRERCKLFSKKVSLQNTMNEICCLIEETVNNEEFLLKDISLLQTT | not soluble |
| MANLFRNLFGHKKSHSKGDEDHENMDRDTSRRSIRAAPSSSSRSMARGARFQDDSMLPPTAAYHTQNASARVRRGPKSCPGEYIEEEAPSSSRSFNVDSFRREPRDQRRRSSNMVQSTSKMTSSSSSRAAPRYQQWETSEYGSENTSPIGYHRHYQHRRHHPEEEEDEEEDEEEVYKKSMRYQDLKKKIRAHYEERLFNYERTQRNDHRQIKELEKEKDDLVKMLLQSNAKLDKEKKKTEYFKRKWQEAEHKIPFGNPIMPQFGFPPATPQFPQMFQFQPNSGGSAQRYSFMGAPMHPISSSNTPTTSGMDTTHGGAGESLVPASDVSYLAPLVPAPPTLPLLELNTSQGPSTSGISQQNPQQSSSSFFHDDDEDQDETKNFRDEEIESPRCHGSTSTLKNDEEAAELSDFLSKSNLTTLEEGKDSGFSTTPDDAKEPEKVAAN | not soluble |
| MANNLMSGIIAQQPPIEAESDVHVVKSRLEWGEPAFTILDVRDRSIYNEGHIMGAMSMPIDELTERAAISLDTSRDIYIYGTNDGQTTQAAQILRSAGFKNVSQLKGGFGAWKAIGGATEGIIESRTPAAADDYNVVSRIQNHIETQQK | not soluble |
| MANPRGFCAGVDRAISIVENALAIYGAPIYVRHEVVHNRYVVDSLRERGAIFIEQISEVPDGAILIFSAHGVSQAVRNEAKSRDLTVFDATCPLVTKVHMEVARASRRGEESILIGHAGHPEVEGTMGQYSNPEGGMYLVESPDDVWKLTVKNEEKLSFMTQTTLSVDDTSDVIDALRKRFPKIVGPRKDDICYATTNRQEAVRALAEQAEVVLVVGSKNSSNSNRLAELAQRMGKHAFLIDDAKDIQEEWVKEVKCVGVTAGASAPDILVQNVVARLQQLGGGEAIPLEGREENIVFEVPKELRVDIREVD | not soluble |
| MANQHFAKEAPETYWKTSTDLPSFPALQEDTECDVTIIGGGITGITTAYELTKRGFRVVLIEANQVLNGTTAHTTAKVTAQHDMIYDEFIRHFGLNHARLYYEANQNAIDYIKGIVDEHQIDCEWIEQDAYLYTANENAVQKIHTEHEAYTKLGIERDLIKDLPIPLGSKLALVMKNQAQFHPLQYLKALLEQIVQKGGRIYEETVALDIKKGERPEVVTKSRHAIKSRFIICCSHFPFYDGGGLYAARMYSDRSYVLAIKPKIEYPEGMYLSIDQPSVALRYTVVNGEKLILFSGVSHKTGQGKAMSTHYETLRQLAESTIGIESIPYYWSTQDLVTIDKIPFIGPMSENEDNILVATGFKKWGMTSSAVAATLLSDLVEKKENPYESIFTPSRFHLNPGLQKVISYNADVAKHLIKGKLEKPDVQFEDISPGEGKAVTINGRRAGAFRDETGCLHLVDTTCTHLGCEVEWNDSEHTWDCPCHGSRFKPSGEVVEGPAIKPLKQIDLDLEHHHHHH | soluble |
| MANTLIVGAGWLGTPLAQALLVEGHDVVITRRSQARLDERPSTIANAALLDLNDENAAQKLDEIIQSNHIERIVGAFPPGFRRGSGREYAQQWSTLVKAAKQHAIEKLVMISSTTVYPNLPTDMKEESASLALVQTHPHFSDNAKIMLEAEQSVIDSGINYAILRCSGLFGPDRHPARFAMRLKQVSRKAPANMLHQSDAVAVAQFALDHLSNQIINVTTPHTVSKAEFYQAAITKSGAEISLPPVTEDADKRILADKLVSLGYQFRFNSTLDAL | not soluble |
| MANWQCVKQCGACCNLDPAERPEIEDYLTPDELEIYFSMVGEGGWCVNFDHTTRECRIYSTRPRFCRVEPDIFQDMYGIESEELNDFAIECCRQQIEGVYGDRSLEMLRFDKAVGILEHHHHHH | soluble |
| MAPDLSGTWYVLEGDPGEHLVVEALGERLSGIWTSRELAEAFLAHHPHLGMRVSALESRALKEAYLRALGMLQVEAVMVDYRPGTHRAQVARVKDLLEEVRRA | soluble |
| MAPTLLELTASIVSSHAAVSELSTEELVQEIQKVHATLQQLEGGAAAPEVAAEEAKAPAMTLKKAFQADQVCCMICGKGGMKTLTRHLAQVHQMKPGEYRKQFNIPSSQPLTAKKFSEARKQMAKDRGLAENLAKARAVRAAKIQEKKAAAEKPAKTKATRAKKATA | not soluble |
| MAPWKIEEVKTLKGLIKSKPVVAIVDMMDVPAPQLQEIRDKIRDKVKLRMSRNTLIIRALKEAAEELNNPKLAELANYVERGAAILVTDMNPFKLYKLLEENKSPAPVRGGQIAPCDIKVEKGSTGMPPGPFLGELKSVGIPAAIEKGKIAIKEDKVVVKKGEVVSPKLAAVLDRLGIKPIKVGLNILAVYEDGIIYTPDVLKVDEEKLLADI | soluble |
| MAQEFSGDVFVISVAAELAGMHAQTLRTYDRLGLVTPQRTRGGGRRYSRDDVELLRTVQHLSQVEGVNLAGIKSIIELKKENAQLRKELAAARAEADVLKNRGARPRGEIVHVPRSTAVVMWQPRRSSRQHD | not soluble |
| MAQHFRLSTAARQLSSDSLVCLPDAEIFQRLKQARWGNADNFVCPHCHIRHLAYFISTRKQWQCKHCQHRFSITAGTIFQGAKLPLRKILLAILYFATESKGLSAIALSHKLNVQYKTAWVLLHKFRESLDKAKDLTPLNGEVHIDGAYTNYYIRPKNFRHKRIDRRKKRYQRADKSCVLVFRQRAANQAVMKGADRSIVALVKEENTKDVLELTQRLVKPNSTIHADENPAYDCLAFHYDLWRVNHSQEYRSIEGITNNLAESFFARLRRAITGIYHKMSNKYLMYYANEMVWREDHRRKSVKEKFEQLLTCCLNTLPSRDFTGYWQGNKKGEAVFGLASLTASNDLHYLKAALEHHHHHH | soluble |
| MAQLYFYYSAMNAGKSTALLQSSYNYQERGMRTVVYTAEIDDRFGAGKVSSRIGLSSPAKLFNQNSSLFDEIRAEHEQQAIHCVLVDECQFLTRQQVYELSEVVDQLDIPVLCYGLRTDFRGELFIGSQYLLAWSDKLVELKTICFCGRKASMVLRLDQAGRPYNEGEQVVIGGNERYVSVCRKHYKEALQVGSLTAIQERHRHD | not soluble |
| MAQQKKTIAVVGATGRQGASLIRVAAAVGHHVRAQVHSLKGLIAEELQAIPNVTLFQGPLLNNVPLMDTLFEGAHLAFINTTSQAGDEIAIGKDLADAAKRAGTIQHYIYSSMPDHSLYGPWPAVPMWAPKFTVENYVRQLGLPSTFVYAGIYNNNFTSLPYPLFQMELMPDGTFEWHAPFDPDIPLPWLDAEHDVGPALLQIFKDGPQKWNGHRIALTFETLSPVQVCAAFSRALNRRVTYVQVPKVEIKVNIPVGYREQLEAIEVVFGEHKAPYFPLPEFSRPAAGSPKGLGPANGKGAGAGMMQGPGGVISQRVTDEARKLWSGWRDMEEYAREVFPIEEEANGLDWML | soluble |
| MAQRVQLTATVSENQLGQRLDQALAEMFPDYSRSRIKEWILDQRVLVNGKVCDKPKEKVLGGEQVAINAEIEEEARFEPQDIPLDIVYEDEDIIIINKPRDLVVHPGAGNPDGTVLNALLHYYPPIADVPRAGIVHRLDKDTTGLMVVAKTVPAQTRLVESLQRREITREYEAVAIGHMTAGGTVDEPISRHPTKRTHMAVHPMGKPAVTHYRIMEHFRVHTRLRLRLETGRTHQIRVHMAHITHPLVGDPVYGGRPRPPKGASEAFISTLRKFDRQALHATMLRLYHPISGIEMEWHAPIPQDMVELIEVMRADFEEHKDEVDWL | soluble |
| MAQSFLLMGALIQHHLKGEKADLLTPEKLLEAANKQGTVPSRVRYQWMEDEETGRLKAVGYHTSMESGRDQVRVRLLKHDFPNNRYEFWEEGATGPTILWTPDNPGIELPTDTAHGEQPVIPSAIPGLEIPEMDDVSILATPMPDEKDFRDYILVFPENAFPPIYVYLSKKIDTPIWLEHHHHHH | soluble |
| MAQTEKLTDYVNPFVGTDGYGNVYPGAQIPFGGIQISPDTDSRFYDAASGYKYNHLTLMGFSLTHLSGTGIPDLGDFLFIPGTGEMKLEPGTHEDPDQGYRSRYSHDKEWASPNYYAVELADYGVKAEMTSGVRSGMFRFTYPESDNAFIMIDMNHTLWQSCEWSNLRMINDSTITGYKLVKGWGPERHVYFTATFSKKLEHHHHHH | not soluble |
| MARARARPGAVMSISGGLVRRRAEGRPLPAASAMSTVTLHRVLRASPERVYRAFLDAAALSKWLPPHGFTNTVEHLDARVGGTFRMAFTQFGSGQRHAFGGTYRELVPNALLRYDDVFDDPSLPGTLLTTVRLLPLPCGTDLHVVQEGIPEQIPLHACYLGWQESLTLLALLVEAQRAELEHHHHHH | not soluble |
| MARKIRKLRKAEVNYITIKATLEAEKKEDYLKLALLTEKFKRAVELSIRLQLKGVKKSEGVKEVSRLILNNWWYSDSAWDYAKMLRKGAERS | not soluble |
| MARLNVNPTRMELSRLKKQLTTATRGHKLLKDKQDELMRRFIALVKENNELRIQVEQEVTDALSNFVLANATLNEAFIEELVAIPAEKVELEIIEQNILSVPVPKMIFDYDESVQEAPLDYGYVNSNSELDQAFAKISSILPKLLALANVEKTCQLLSKEIEKTRRRVNALEYMTIPQLEETIYYIQMKLEENERGEITRLIKIKSMNKENLEHHHHHH | not soluble |
| MARNAEKAMTALARFRQAQLEEGKVKERRPFLASECTELPKAEKWRRQIIGEISKKVAQIQNAGLGEFRIRDLNDEINKLLREKGHWEVRIKELGGPDYGKVGPKMLDHEGKEVPGNRGYKYFGAAKDLPGVRELFEKEPLPPPRKTRAELMKAIDFEYYGYLDEDDGVIVPLEQEYEKKLRAELVEKWKAEREARLARGEKEEEEEEEEEINIYAVTEEESDEEGSQEKGGDDSQQKFIAHVPVPSQQEIEEALVRRKKMELLQKYASETLQAQSEEARRLLGY | soluble |
| MARPETESKTIFGKRLRYVRLALGDPSREALAKSFSMTKNSIAFYERGEREPNLSVLQTYRTLYGVNINWLLTGQGKMFDTEYTKGDFDWNYFIKKIEGLEEILSNSDRSEKLNQEKIESSYEKLQQYLSRQGSTNRYTPKAATSLIDMKAKMANSYALSLFIDLLIRSISQKEVVANQ | not soluble |
| MARPQSKKKQTQVARRPRRRGRWVPPSRLIAGRDFPEFLRQAVLLSGSLRQAARKLRVSYSTLRGWLGRRCEEPPEGERDLLAGHVAAIRTELDVAAEHLAIVRGQLDALERGDDG | not soluble |
| MARQHRLRAGRPVAAEACMSGGETGRTLRALFMSVSLGAGHDQAQQAVKQAFAERGVELLGAEHDSVEYLSTFERSFTVDLYEFELRYAPWLYRGFYWLTDQDQPWNIISRMFTWLGMGAFKDELRELRPEVVINSFWAPAAVCDTLRAQTGQRFLNCLIVTDYRAHLHWARRETDLLMVASEETRRQMLERGVRPEQVEVTGIPISPAFREVLAADRWALRAELFSEMSLRPGVPLLLLSGGGRGHYAAAADVLTELGNLGRAVQVLVPASRQGEGTETIGGATVHHLGFRRDLPRLLAASDLVVGKAGGLTVAEATALGVPLVIYAPIPGQEEHNADFLERHGAGLWARARHDVRPLVLRALDPAEHARLSAGARAVGIPDAADRVAGAILRRLGDGLGDELGDSRGPA | not soluble |
